B1: CPEB3 Ribozyme (parent)
chain: GGGGGCCACAGCAGAAGCGUUCACGUCGCGGCCCCUGUCAGAUUCUGGUGAAUCUGCGAAUUCUGCUGU

Variants of B1 are the subject of the data set. Description: self-cleavage, relative activity (ratio to wild type); higher = more cleavage; co-transcriptional.
With C33G G47C, the self-cleavage is 0.638.

For the variant C33G G47U, the self-cleavage was 0.682.

Consider C33G G47A, for which the self-cleavage is 0.663.

For the variant C33A U62A, the self-cleavage turned out to be 0.566.

As to C32U C63U, the self-cleavage turned out to be 0.956.

On to C32U C63A, for which the self-cleavage came to 0.886.

Turning to C33G A60U, the self-cleavage is 0.328.

For the variant C33G A60G, the self-cleavage was 0.372.

On to C33G A60C, for which the self-cleavage turned out to be 0.415.

For the variant C33G G68A, the self-cleavage was determined as 0.922.

For C33A C66G, the self-cleavage was 0.665.

For C33A C66A, the self-cleavage was determined as 0.76.

For C33A C66U, the self-cleavage amounted to 0.901.

On to C33A U69G, for which the self-cleavage is 0.988.

As for C33A U69C, the self-cleavage came to 1.04.

Consider C32G C54A, for which the self-cleavage stood at 0.356.

With C32G C54G, the self-cleavage was determined as 0.335.

C33G U64C: the self-cleavage amounted to 0.484.

Turning to C33G U64G, the self-cleavage is 0.395.

In the case of C33G U64A, the self-cleavage was found to be 0.638.

For the variant C33G G65U, the self-cleavage was 0.376.

C33G G65A: the self-cleavage stood at 0.511.

Regarding C33G G65C, the self-cleavage came out at 0.424.

As for C33G U62A, the self-cleavage was 0.391.

With C33G U62G, the self-cleavage came to 0.374.

C33U A42C: the self-cleavage is 0.793.

As to C33U A42U, the self-cleavage is 0.953.

As to C33U A42G, the self-cleavage is 0.916.

Turning to C33G A59C, the self-cleavage came to 0.326.

For the variant C32U C66U, the self-cleavage turned out to be 1.

Take C32U C66A: the self-cleavage came out at 0.893.

On to C32U C66G, for which the self-cleavage stood at 0.923.

As for C33A G50A, the self-cleavage worked out at 0.938.

As for C33A G50C, the self-cleavage was 0.92.

For the variant C32G A51C, the self-cleavage was determined as 0.353.

On to C32G A51U, for which the self-cleavage was 0.419.

For the variant C32G U36G, the self-cleavage stood at 0.191.

As for C33U G47U, the self-cleavage worked out at 0.985.

As for C33U G47C, the self-cleavage turned out to be 0.969.

For C33U G47A, the self-cleavage was 0.972.

With C32U C57G, the self-cleavage is 0.335.

As for C32U C57U, the self-cleavage was found to be 0.327.

As to C32U C39U, the self-cleavage is 0.937.

Take C32G A59U: the self-cleavage was found to be 0.206.

As to C32G A59G, the self-cleavage was 0.586.

With C33U A52C, the self-cleavage was 0.978.

As to C33U C66G, the self-cleavage amounted to 0.921.

With C33G A40U, the self-cleavage came to 0.273.

Take C33G A40C: the self-cleavage was determined as 0.324.

With C32G G48A, the self-cleavage was determined as 0.62.

Take C32G G48U: the self-cleavage stood at 0.562.

For C32U G47U, the self-cleavage worked out at 1.01.

For C32G G68C, the self-cleavage came out at 0.768.

Turning to C32G G68A, the self-cleavage worked out at 0.808.

Turning to C33G U44C, the self-cleavage amounted to 0.576.

With C33G U44G, the self-cleavage was determined as 0.333.

C32A U53C: the self-cleavage came to 0.455.

On to C32A U53G, for which the self-cleavage stood at 0.419.

In the case of C33G G37A, the self-cleavage was 0.299.

C33G G37U: the self-cleavage is 0.245.

As for C32G U55G, the self-cleavage came out at 0.218.

Take C32G U55C: the self-cleavage is 0.258.

For C33G U36G, the self-cleavage is 0.25.

Consider C33G U36A, for which the self-cleavage was determined as 0.13.

C33A G37A: the self-cleavage worked out at 0.26.

Turning to C33A G37U, the self-cleavage is 0.12.

For C33G A42U, the self-cleavage was determined as 0.556.

With C33G G56C, the self-cleavage worked out at 0.326.

As to C32G U67A, the self-cleavage is 0.525.

For C32G U67C, the self-cleavage is 0.536.

Consider C32G U67G, for which the self-cleavage was 0.584.

With C32U A59U, the self-cleavage was 0.785.

For C32U A59G, the self-cleavage stood at 0.954.

Turning to C32U A59C, the self-cleavage came to 0.687.

As for C33A G65C, the self-cleavage is 0.529.

Take C33G C39G: the self-cleavage was 0.513.

Turning to C33G C39U, the self-cleavage turned out to be 0.337.

In the case of C33G C39A, the self-cleavage was 0.387.

Consider C32A U43C, for which the self-cleavage was 0.441.

Turning to C32A U43A, the self-cleavage came to 0.345.

With C32U A42G, the self-cleavage came out at 0.914.

Turning to C32U A42C, the self-cleavage was 0.961.

Consider C32U A42U, for which the self-cleavage worked out at 0.933.

For C32U U69G, the self-cleavage worked out at 1.03.

As to C32U U69C, the self-cleavage worked out at 1.06.

As to C32G C63A, the self-cleavage amounted to 0.3.

As for C33G U61A, the self-cleavage was 0.317.

For the variant C33G U61G, the self-cleavage was determined as 0.193.

As to C33G U61C, the self-cleavage is 0.341.

In the case of C32U C34A, the self-cleavage was 0.541.

In the case of C32A U69C, the self-cleavage was 1.03.

Take C32G C39U: the self-cleavage amounted to 0.332.

In the case of C33A U67G, the self-cleavage was found to be 1.01.

C33A U67A: the self-cleavage came out at 0.977.

Turning to C33G G58U, the self-cleavage is 0.821.

Consider C33G G58C, for which the self-cleavage amounted to 0.703.

As for C33G G41U, the self-cleavage is 0.268.

As for C32A U38G, the self-cleavage is 0.271.

Turning to C32A U38C, the self-cleavage is 0.504.

With C32A U55A, the self-cleavage was 0.622.

Regarding C32A U55C, the self-cleavage was 0.393.

C32A U55G: the self-cleavage is 0.451.

In the case of C33G G50U, the self-cleavage turned out to be 0.578.

As to C33G G50C, the self-cleavage was determined as 0.661.

Turning to C33G G50A, the self-cleavage is 0.687.

Regarding C33A U61C, the self-cleavage is 0.45.

In the case of C33A U61A, the self-cleavage amounted to 0.599.

With C32U G41A, the self-cleavage is 0.845.

As to C32A U62C, the self-cleavage worked out at 0.339.

Regarding C33U A60U, the self-cleavage is 0.505.

As to C33U A60G, the self-cleavage was determined as 0.814.

For C32G U53A, the self-cleavage was 0.266.

Take C33A U38G: the self-cleavage is 0.212.

For the variant C33G U55G, the self-cleavage turned out to be 0.38.

As for C33G U55A, the self-cleavage is 0.571.

Regarding C33A U43G, the self-cleavage was 0.361.

C33A U43C: the self-cleavage came to 0.461.

In the case of C33U A40C, the self-cleavage worked out at 0.619.

Take C33U A40U: the self-cleavage came to 0.906.

On to C33U A40G, for which the self-cleavage amounted to 0.952.

For the variant C32G A52C, the self-cleavage stood at 0.435.

In the case of C33A A40G, the self-cleavage was 0.748.

Consider C32G G65A, for which the self-cleavage was 0.288.

Take C32G G65C: the self-cleavage stood at 0.224.

Consider C32G U62G, for which the self-cleavage is 0.271.

For C32G U62C, the self-cleavage came to 0.306.

C32G U62A: the self-cleavage is 0.26.

For the variant C32A U67C, the self-cleavage turned out to be 0.882.

As to C32A U67A, the self-cleavage was determined as 0.956.

Regarding C32A U67G, the self-cleavage is 0.936.

Regarding C33G C54G, the self-cleavage turned out to be 0.338.

C33G C54U: the self-cleavage was 0.727.

For the variant C33A C57A, the self-cleavage stood at 0.345.

As to C33A C57G, the self-cleavage worked out at 0.263.

In the case of C33G U67C, the self-cleavage amounted to 0.777.

For C32G A60G, the self-cleavage was 0.267.

As to C32U A51C, the self-cleavage turned out to be 0.964.

On to C32G U46A, for which the self-cleavage is 0.492.

As to C32G U46G, the self-cleavage came out at 0.522.

For the variant C32G C57G, the self-cleavage worked out at 0.263.

For C33A C63G, the self-cleavage was 0.513.

Turning to C33U C63G, the self-cleavage stood at 0.82.

On to C33U C63A, for which the self-cleavage stood at 0.795.

For C33U C63U, the self-cleavage came to 0.936.

C33G A51G: the self-cleavage is 0.739.

For C33G A51U, the self-cleavage turned out to be 0.415.

C32G U64A: the self-cleavage is 0.235.

On to C32G U64G, for which the self-cleavage is 0.253.

In the case of C33G C63U, the self-cleavage turned out to be 0.632.

C33G C63G: the self-cleavage was 0.384.

Consider C32U C45A, for which the self-cleavage turned out to be 0.983.

In the case of C32U C45U, the self-cleavage amounted to 1.01.

As to C32U C45G, the self-cleavage was determined as 0.975.

Take C32A U44A: the self-cleavage worked out at 0.357.

Take C32A U44G: the self-cleavage was 0.469.

As to C32U C54A, the self-cleavage was determined as 0.861.

With C32U C54U, the self-cleavage is 0.966.

Consider C32A U46A, for which the self-cleavage was 0.574.

Take C32A U46G: the self-cleavage was 0.729.

Turning to C32A U46C, the self-cleavage was 0.776.

For the variant C32G U69C, the self-cleavage stood at 0.839.

For C33A U44C, the self-cleavage was found to be 0.656.

As for C33A U44A, the self-cleavage came out at 0.313.

Turning to C33A U44G, the self-cleavage was determined as 0.374.

C32G G58A: the self-cleavage came out at 0.44.

On to C33A U49A, for which the self-cleavage came out at 0.965.

As to C33A U49C, the self-cleavage was 0.926.

Source of the values: the RNAGym collection of RNA variant scans (doi:10.7554/elife.80360).
